In US20200239579A1 (Genmab, published 2020):

Columns and labels:
[1] = target: T1, PDLoneECDHisCtag (human, UniProt Q9NZQ7 19-238); experiment: BLI cross-block, second antibody on PDLoneECDHisCtag held by immobilised 547; plain = non-blocking
T1 construct: Expressed in HEK-293F cells; theoretical molecular weight 29 kDa; also called recombinant human PD-L1 ECD; human PD-L1 (BLI); not shown: C-terminal His-tag; C-tag
Protocol: (§1) Antibody cross-block testing was performed using biolayer interferometry (BLI) on an Octet HTX instrument (ForteBio). Antibodies (20 μg/ml in 10 mM sodium acetate buffer pH 6.0 (ForteBio)) were immobilized on Amine-Reactive 2nd Generation (AR2G) biosensors (ForteBio) according to the instructions of the manufacturer. After a baseline (50 s) in Sample Diluent (ForteBio), biosensors containing immobilized antibodies were loaded for 500 s with PDLoneECDHisCtag (100 nM or 2.7 μg/ml), after which the association response of a second antibody (10 μg/ml) was followed for 500 s. Biosensors were regenerated by using 3 times 5 s alternating exposures to 10 mM glycine pH 2.5 and Sample Diluent. The experiment was repeated with a new set of second antibodies starting from the baseline step. Each biosensor was used 6 times. The experiment was performed at 30° C. using a shaker speed of 1000 rpm. Data was analyzed using Data Analysis Software v9.0.0.12 (ForteBio). The Y-axis was aligned to the association step and Savitzky-Golay filtering was applied. The average buffer response was subtracted from the association response of the second antibody in order to correct for the dissociation of PDLoneECDHisCtag from the immobilized antibody. The corrected association responses were plotted in a matrix format.

[2] = target: T1, PDLoneECDHisCtag; experiment: BLI cross-block, second antibody on PDLoneECDHisCtag held by immobilised MPDL; bold = blocking
Protocol: as §1

[3] = target: T1, PDLoneECDHisCtag; experiment: BLI cross-block, second antibody on PDLoneECDHisCtag held by immobilised 421-LC91S; bold = blocking
Protocol: as §1

[4] = target: T1, PDLoneECDHisCtag; experiment: BLI cross-block, second antibody on PDLoneECDHisCtag held by immobilised 476-N101Q-LC33S; plain = non-blocking
Protocol: as §1

[5] = target: T1, PDLoneECDHisCtag; experiment: BLI cross-block, second antibody on PDLoneECDHisCtag held by immobilised 516; bold = blocking
Protocol: as §1

[6] = target: T1, PDLoneECDHisCtag; experiment: BLI cross-block, second antibody on PDLoneECDHisCtag held by immobilised 632; plain = non-blocking
Protocol: as §1

[7] = target: T1, PDLoneECDHisCtag; experiment: BLI cross-block, second antibody on PDLoneECDHisCtag held by immobilised 511-LC33S; plain = non-blocking
Protocol: as §1

T1 sequence (Q9NZQ7 19-238, form in doubt): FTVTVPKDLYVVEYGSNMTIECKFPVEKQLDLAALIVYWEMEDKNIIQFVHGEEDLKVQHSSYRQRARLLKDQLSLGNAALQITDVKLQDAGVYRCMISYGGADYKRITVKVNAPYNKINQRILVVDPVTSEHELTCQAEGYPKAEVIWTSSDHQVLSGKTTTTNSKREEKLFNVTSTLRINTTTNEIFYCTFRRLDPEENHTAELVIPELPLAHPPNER

B1: IgG1-516-FEAR (antibody, V domains shown)
VH: QVQLQESGPGLVKPSDTLSLTCAVSDYSISSNDWWGWIRQPPGKGLEWIGYIYYSGTGYYNPSLKSRVTISIDTSKNQFSLKLNSVTAVDTAVYYCARTRVGARRAFDYWGQGTLVTVSS
VL: SYVLTQPPSVSVAPGQTARITCGGNNIGSKSVHWYQQKPGQAPVLVVYDDSDRPSGIPERFSGSNSGNTATLTISRVEAGDEADYYCQVWDSSSDHVVFGGGTKLTVL
association response of the second antibody [1]: 0.7 nm
association response of the second antibody [2]: 0 nm
association response of the second antibody [3]: 0 nm
association response of the second antibody [4]: 0.7 nm
association response of the second antibody [5]: 0 nm
association response of the second antibody [6]: 0.6 nm
association response of the second antibody [7]: 0.6 nm
